The numbers were not newly measured in article PMC10584158, which cites them from elsewhere.

The target in this data set is IL-6 (Homo sapiens) (UniProt P05231).
Sequence of IL-6 (Homo sapiens) (P05231 30-212): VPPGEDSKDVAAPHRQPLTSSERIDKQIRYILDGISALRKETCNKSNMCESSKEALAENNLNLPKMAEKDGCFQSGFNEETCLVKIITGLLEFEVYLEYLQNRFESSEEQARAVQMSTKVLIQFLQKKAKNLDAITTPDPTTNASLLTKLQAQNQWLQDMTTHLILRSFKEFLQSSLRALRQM

Turning to Clazakizumab, the Kd was 4 pM.
